Target: p53 (recombinant, Active Motif 81091) (Homo sapiens, UniProt P04637 1-393)
Assay: EMSA; no JMJD2D; 5 mM Hepes pH 7.6, 100 mM KCl, 5 mM MgCl2, 1.25 mM DTT, 0.05% NP-40, 2.25% glycerol, 1 ug poly(dI.dC); 6% polyacrylamide gel; temperature not stated
Conditions: protein: commercial; chain copies: 4; label: biotin end label; blunt

p53 (recombinant, Active Motif 81091), sequence (P04637 whole entry): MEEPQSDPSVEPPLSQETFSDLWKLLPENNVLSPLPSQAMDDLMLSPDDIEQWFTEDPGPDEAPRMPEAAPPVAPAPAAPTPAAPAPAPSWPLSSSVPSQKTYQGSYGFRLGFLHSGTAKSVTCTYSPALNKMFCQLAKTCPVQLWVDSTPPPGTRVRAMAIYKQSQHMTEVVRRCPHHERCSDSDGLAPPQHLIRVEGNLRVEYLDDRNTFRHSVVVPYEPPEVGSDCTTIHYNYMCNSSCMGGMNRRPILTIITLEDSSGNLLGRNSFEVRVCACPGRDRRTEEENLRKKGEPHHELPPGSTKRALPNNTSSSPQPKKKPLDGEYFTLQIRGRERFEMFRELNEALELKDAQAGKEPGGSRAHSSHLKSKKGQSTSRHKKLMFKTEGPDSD

B1: p21 promoter p53 element (dsDNA)
DNA 1: CTGGCCGTCAGGAACATGTCCCAACATGTTGAGCTCT
DNA 2: AGAGCTCAACATGTTGGGACATGTTCCTGACGGCCAG
B1: binds.

B2: PUMA promoter p53 element (dsDNA)
DNA 1: GCGCGCCTGCAAGTCCTGACTTGTCCGCGGCG
DNA 2: CGCCGCGGACAAGTCAGGACTTGCAGGCGCGC
B2: binds.
